We go through 1 substance from patent US6413730.

This data set has as its target T1, GST-hElk-L cytoplasmic domain fusion protein (GST-Elk-L cyt) (UniProt P98172).
T1 sequence: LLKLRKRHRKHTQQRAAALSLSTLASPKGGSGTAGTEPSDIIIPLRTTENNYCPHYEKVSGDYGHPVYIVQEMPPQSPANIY

Turning to v-Src, the “in vitro kinase assay with 32P-gamma-ATP, autoradiography” value is reported as “A GST fusion protein containing the cytoplasmic domain of human Elk-L (residues 262-343) was tyrosine phosphorylated by v-Src in vitro”.
